# Laboratory results reported in the MegaScale stability set (Tsuboyama et al. 2023).
# B1: EEHEE_rd4_0647 (parent)
# chain: MQVTWGNVTVTFSNPEEAKKYAEKVARKLGGQVELHNGQFRIK
# Variants of: B1
# Assay: folding stability dG (cDNA display proteolysis); higher = more stable
# Details: PBS, room temperature
row,Variant,folding stability dG [kJ/mol]
1,MQVTWGNVTVTFSNPEEAKKYAEKVARKLGGQVYLHNGQFRIK [E34Y],11.6
2,MQVTWGNVTVTFSNPEEAKKYAEKVARKLGGQVKLHNGQFRIK [E34K],7.22
3,MQVTWGNVTVTFSNPEEAKKYAEKVARKLGGQVRLHNGQFRIK [E34R],7.45
4,MQVTWGNVTVTFSNPEEAKKYAEKVARKLGGQVMLHNGQFRIK [E34M],9.27
5,MQVTWGNVTVTFSNPEEAKKYAEKVARKLGGQVALHNGQFRIK [E34A],8.12
6,MQVTWGNVTVTFSNPEEAKKYAEKVARKLGGQVTLHNGQFRIK [E34T],10.2
7,MQVTWGNVTVTFSNPEEAKKYAEKVARKLGGQVLLHNGQFRIK [E34L],9.26
8,MQVTWGNVTVTFSNPEEAKKYAEKVARKLGGQVSLHNGQFRIK [E34S],9.33
9,MQVTWGNVTVTFSNPEEAKKYAEKVARKLGGQVDLHNGQFRIK [E34D],8.82
10,MQVTWGNVTVTFSNPEEAKKYAEKVARKLGGQVILHNGQFRIK [E34I],11.8
11,MQVTWGNVTVTFSNPEEAKKYAEKVARKLGGQVWLHNGQFRIK [E34W],9.21
12,MQVTWGNVTVTFSNPEEAKKYAEKVARKLGGQVFLHNGQFRIK [E34F],10.9
13,MQVTWGNVTVTFSNPEEAKKYAEKVARKLGGQVVLHNGQFRIK [E34V],11.8
14,MQVTWGNVTVTFSNPEEAKKYAEKVARKLGGQVHLHNGQFRIK [E34H],9.07
15,MQVTWGNVTVTFSNPEEAKKYAEKVARKLGGQVGLHNGQFRIK [E34G],5.9
16,MQVTWGNVTVTFSNPEEAKKYAEKVARKLGGQVNLHNGQFRIK [E34N],6.69
17,MQVTWGNVTVTFSNPEEAKKYAEKVARKLGGQVQLHNGQFRIK [E34Q],9.41
18,MQVTWGNVTVTFSNPEEAKKYAEKVARKLGGQVPLHNGQFRIK [E34P],1.61
19,MQVTWGNVTVTFSNPEEAKKYAEKVARKLGGQVEAHNGQFRIK [L35A],8.76
20,MQVTWGNVTVTFSNPEEAKKYAEKVARKLGGQVEDHNGQFRIK [L35D],7.69
21,MQVTWGNVTVTFSNPEEAKKYAEKVARKLGGQVEPHNGQFRIK [L35P],5.46
22,MQVTWGNVTVTFSNPEEAKKYAEKVARKLGGQVEYHNGQFRIK [L35Y],13.1
23,MQVTWGNVTVTFSNPEEAKKYAEKVARKLGGQVEKHNGQFRIK [L35K],8.83
24,MQVTWGNVTVTFSNPEEAKKYAEKVARKLGGQVEGHNGQFRIK [L35G],6.18

row,Variant,folding stability dG [kJ/mol]
1,MQVTWGNVTVTFSNPEEAKKYAEKVARKLGGQVEHHNGQFRIK [L35H],8.81
2,MQVTWGNVTVTFSNPEEAKKYAEKVARKLGGQVEMHNGQFRIK [L35M],11.8
3,MQVTWGNVTVTFSNPEEAKKYAEKVARKLGGQVEIHNGQFRIK [L35I],11.9
4,MQVTWGNVTVTFSNPEEAKKYAEKVARKLGGQVEVHNGQFRIK [L35V],11.8
5,MQVTWGNVTVTFSNPEEAKKYAEKVARKLGGQVEQHNGQFRIK [L35Q],9.54
6,MQVTWGNVTVTFSNPEEAKKYAEKVARKLGGQVETHNGQFRIK [L35T],9.39
7,MQVTWGNVTVTFSNPEEAKKYAEKVARKLGGQVERHNGQFRIK [L35R],8.92
8,MQVTWGNVTVTFSNPEEAKKYAEKVARKLGGQVENHNGQFRIK [L35N],8.22
9,MQVTWGNVTVTFSNPEEAKKYAEKVARKLGGQVECHNGQFRIK [L35C],11.6
10,MQVTWGNVTVTFSNPEEAKKYAEKVARKLGGQVEFHNGQFRIK [L35F],13.2
11,MQVTWGNVTVTFSNPEEAKKYAEKVARKLGGQVEWHNGQFRIK [L35W],11
12,MQVTWGNVTVTFSNPEEAKKYAEKVARKLGGQVESHNGQFRIK [L35S],8.53
13,MQVTWGNVTVTFSNPEEAKKYAEKVARKLGGQVEEHNGQFRIK [L35E],10.5
14,MQVTWGNVTVTFSNPEEAKKYAEKVARKVGGQVELHNGQFRIK [L29V],11.6
15,MQVTWGNVTVTFSNPEEAKKYAEKVARKWGGQVELHNGQFRIK [L29W],10.5
16,MQVTWGNVTVTFSNPEEAKKYAEKVARKSGGQVELHNGQFRIK [L29S],8.46
17,MQVTWGNVTVTFSNPEEAKKYAEKVARKYGGQVELHNGQFRIK [L29Y],11
18,MQVTWGNVTVTFSNPEEAKKYAEKVARKTGGQVELHNGQFRIK [L29T],11.1
19,MQVTWGNVTVTFSNPEEAKKYAEKVARKLGCQVELHNGQFRIK [G31C],11.7
20,MQVTWGNVTVTFSNPEEAKKYAEKVARKLGAQVELHNGQFRIK [G31A],10.9
21,MQVTWGNVTVTFSNPEEAKKYAEKVARKLGMQVELHNGQFRIK [G31M],10.6
22,MQVTWGNVTVTFSNPEEAKKYAEKVARKLGRQVELHNGQFRIK [G31R],7.54
23,MQVTWGNVTVTFSNPEEAKKYAEKVARKLGEQVELHNGQFRIK [G31E],6.12
24,MQVTWGNVTVTFSNPEEAKKYAEKVARKLGTQVELHNGQFRIK [G31T],8.5

row,Variant,folding stability dG [kJ/mol]
1,MQVTWGNVTVTFSNPEEAKKYAEKVARKLGYQVELHNGQFRIK [G31Y],8.55
2,MQVTWGNVTVTFSNPEEAKKYAEKVARKLGHQVELHNGQFRIK [G31H],8.83
3,MQVTWGNVTVTFSNPEEAKKYAEKVARKLGIQVELHNGQFRIK [G31I],8.41
4,MQVTWGNVTVTFSNPEEAKKYAEKVARKLGNQVELHNGQFRIK [G31N],4.45
5,MQVTWGNVTVTFSNPEEAKKYAEKVARKLGFQVELHNGQFRIK [G31F],9.23
6,MQVTWGNVTVTFSNPEEAKKYAEKVARKLGKQVELHNGQFRIK [G31K],7.55
7,MQVTWGNVTVTFSNPEEAKKYAEKVARKLGQQVELHNGQFRIK [G31Q],7.84
8,MQVTWGNVTVTFSNPEEAKKYAEKVARKLGLQVELHNGQFRIK [G31L],10.9
9,MQVTWGNVTVTFSNPEEAKKYAEKVARKLGPQVELHNGQFRIK [G31P],2.3
10,MQVTWGNVTVTFSNPEEAKKYAEKVARKLGDQVELHNGQFRIK [G31D],4.4
11,MQVTWGNVTVTFSNPEEAKKYAEKVARKLGWQVELHNGQFRIK [G31W],10
12,MQVTWGNVTVTFSNPEEAKKYAEKVARKLGSQVELHNGQFRIK [G31S],9.15
13,MQVTWGNVTVTFSNPEEAKKYAEKVARKLGVQVELHNGQFRIK [G31V],9.51
14,MQVTWGNVTVTFSNPEEAKKYAEKVARKLCGQVELHNGQFRIK [G30C],12.6
15,MQVTWGNVTVTFSNPEEAKKYAEKVARKLTGQVELHNGQFRIK [G30T],5.6
16,MQVTWGNVTVTFSNPEEAKKYAEKVARKLVGQVELHNGQFRIK [G30V],6.08
17,MQVTWGNVTVTFSNPEEAKKYAEKVARKLIGQVELHNGQFRIK [G30I],5.63
18,MQVTWGNVTVTFSNPEEAKKYAEKVARKLPGQVELHNGQFRIK [G30P],4.37
19,MQVTWGNVTVTFSNPEEAKKYAEKVARKLRGQVELHNGQFRIK [G30R],10.1
20,MQVTWGNVTVTFSNPEEAKKYAEKVARKLSGQVELHNGQFRIK [G30S],8.28
21,MQVTWGNVTVTFSNPEEAKKYAEKVARKLLGQVELHNGQFRIK [G30L],7.73
22,MQVTWGNVTVTFSNPEEAKKYAEKVARKLEGQVELHNGQFRIK [G30E],6.64
23,MQVTWGNVTVTFSNPEEAKKYAEKVARKLFGQVELHNGQFRIK [G30F],7.97
24,MQVTWGNVTVTFSNPEEAKKYAEKVARKLHGQVELHNGQFRIK [G30H],10.6

row,Variant,folding stability dG [kJ/mol]
1,MQVTWGNVTVTFSNPEEAKKYAEKVARKLDGQVELHNGQFRIK [G30D],7.99
2,MQVTWGNVTVTFSNPEEAKKYAEKVARKLQGQVELHNGQFRIK [G30Q],8.89
3,MQVTWGNVTVTFSNPEEAKKYAEKVARKLYGQVELHNGQFRIK [G30Y],7.58
4,MQVTWGNVTVTFSNPEEAKKYAEKVARKLAGQVELHNGQFRIK [G30A],7.85
5,MQVTWGNVTVTFSNPEEAKKYAEKVARKLWGQVELHNGQFRIK [G30W],7.28
6,MQVTWGNVTVTFSNPEEAKKYAEKVARKLKGQVELHNGQFRIK [G30K],10
7,MQVTWGNVTVTFSNPEEAKKYAEKVARKLNGQVELHNGQFRIK [G30N],11
8,MQVTWGNVTVTFSNPEEAKKYAEKVARKLMGQVELHNGQFRIK [G30M],8.57
9,MQVTWGNVTVTFSNPEEAKKYAEKVARKLGGQCELHNGQFRIK [V33C],8.16
10,MQVTWGNVTVTFSNPEEAKKYAEKVARKLGGQEELHNGQFRIK [V33E],1.5
11,MQVTWGNVTVTFSNPEEAKKYAEKVARKLGGQKELHNGQFRIK [V33K],2.87
12,MQVTWGNVTVTFSNPEEAKKYAEKVARKLGGQDELHNGQFRIK [V33D],1.08
13,MQVTWGNVTVTFSNPEEAKKYAEKVARKLGGQTELHNGQFRIK [V33T],5.1
14,MQVTWGNVTVTFSNPEEAKKYAEKVARKLGGQGELHNGQFRIK [V33G],1.15
15,MQVTWGNVTVTFSNPEEAKKYAEKVARKLGGQLELHNGQFRIK [V33L],9.05
16,MQVTWGNVTVTFSNPEEAKKYAEKVARKLGGQFELHNGQFRIK [V33F],7.75
17,MQVTWGNVTVTFSNPEEAKKYAEKVARKLGGQNELHNGQFRIK [V33N],2.12
18,MQVTWGNVTVTFSNPEEAKKYAEKVARKLGGQYELHNGQFRIK [V33Y],8.65
19,MQVTWGNVTVTFSNPEEAKKYAEKVARKLGGQRELHNGQFRIK [V33R],2
20,MQVTWGNVTVTFSNPEEAKKYAEKVARKLGGQQELHNGQFRIK [V33Q],2.26
21,MQVTWGNVTVTFSNPEEAKKYAEKVARKLGGQAELHNGQFRIK [V33A],7.62
22,MQVTWGNVTVTFSNPEEAKKYAEKVARKLGGQPELHNGQFRIK [V33P],5.12
23,MQVTWGNVTVTFSNPEEAKKYAEKVARKLGGQHELHNGQFRIK [V33H],3.14
24,MQVTWGNVTVTFSNPEEAKKYAEKVARKLGGQMELHNGQFRIK [V33M],7.79

row,Variant,folding stability dG [kJ/mol]
1,MQVTWGNVTVTFSNPEEAKKYAEKVARKLGGQSELHNGQFRIK [V33S],4.65
2,MQVTWGNVTVTFSNPEEAKKYAEKVARKLGGQIELHNGQFRIK [V33I],11
3,MQVTWGNVTVTFSNPEEAKKYAEKVARKLGGQWELHNGQFRIK [V33W],8.9
4,MQVTWGNVTVTFSNPEEAKKYAEKVARKLGGPVELHNGQFRIK [Q32P],5.56
5,MQVTWGNVTVTFSNPEEAKKYAEKVARKLGGIVELHNGQFRIK [Q32I],13.7
6,MQVTWGNVTVTFSNPEEAKKYAEKVARKLGGCVELHNGQFRIK [Q32C],14.5
7,MQVTWGNVTVTFSNPEEAKKYAEKVARKLGGGVELHNGQFRIK [Q32G],7.42
8,MQVTWGNVTVTFSNPEEAKKYAEKVARKLGGYVELHNGQFRIK [Q32Y],13.9
9,MQVTWGNVTVTFSNPEEAKKYAEKVARKLGGHVELHNGQFRIK [Q32H],12.1
10,MQVTWGNVTVTFSNPEEAKKYAEKVARKLGGRVELHNGQFRIK [Q32R],12.1
11,MQVTWGNVTVTFSNPEEAKKYAEKVARKLGGAVELHNGQFRIK [Q32A],10.6
12,MQVTWGNVTVTFSNPEEAKKYAEKVARKLGGTVELHNGQFRIK [Q32T],14
13,MQVTWGNVTVTFSNPEEAKKYAEKVARKLGGWVELHNGQFRIK [Q32W],13.3
14,MQVTWGNVTVTFSNPEEAKKYAEKVARKLGGVVELHNGQFRIK [Q32V],13.8
15,MQVTWGNVTVTFSNPEEAKKYAEKVARKLGGDVELHNGQFRIK [Q32D],8.84
16,MQVTWGNVTVTFSNPEEAKKYAEKVARKLGGFVELHNGQFRIK [Q32F],12.9
17,MQVTWGNVTVTFSNPEEAKKYAEKVARKLGGSVELHNGQFRIK [Q32S],12.5
18,MQVTWGNVTVTFSNPEEAKKYAEKVARKLGGMVELHNGQFRIK [Q32M],11.6
19,MQVTWGNVTVTFSNPEEAKKYAEKVARKLGGKVELHNGQFRIK [Q32K],12.2
20,MQVTWGNVTVTFSNPEEAKKYAEKVARKLGGLVELHNGQFRIK [Q32L],11.5
21,MQVTWGNVTVTFSNPEEAKKYAEKVARKLGGNVELHNGQFRIK [Q32N],10
22,MQVTWGNVTVTFSNPEEAKKYAEKVARKLGGEVELHNGQFRIK [Q32E],11.5
